Laboratory results as given in patent US7943358B2, “Polymerase enhancing factor (PEF) extracts, PEF protein complexes, isolated PEF protein, and methods for purifying and identifying” (Agilent Technologies, Inc., priority 1997, dated 2011).

Tests used:
Assay type in all cases: biochemical
[1] = PPi detection with dATP in place of dUTP; conditions: 1 hour at 72° C.
Method: […] The presence of PPi in the reaction mixture was then quantified using Sigma's Enzymatic Determination of Pyrophosphate kit (Sigma Product No. P7275). The kit utilizes a coupled enzyme system whereby two moles of NADH are oxidized to NAD^+ for each mole of PPi present in the reaction mixture. The oxidation of NADH is monitored spectrophotometrically at 340 nm. […] The reactions that contained 1800 ng of PEF produced twice as much PPi as those that contained 900 ng of PEF.

[2] = Reverse phase HPLC analysis of dCTP conversion
Method: The similarity of P45 to dCTP deaminases prompted us to test whether dCTP or other nucleotide triphosphates were substrates of PEF/P45. PEF was incubated with dCTP or dUTP and the reaction products were separated by reverse phase HPLC. Reaction mixtures (50 μl) containing 1× cloned Pfu polymerase buffer, 10 mM dCTP or dUTP, and 700 ng PEF (or 5 μl of cloned p45 (˜100 ng) or nothing (neg. control)) were incubated at 72° C. for 1 hour. The samples were injected on a […] Waters Delta-pak C-18 column (300 angstrom/15 μm), equilibrated in 50 mM triethylammonium acetate, pH (7.0) (A). Products were eluted with acetonitrile (B) at 2 ml/min. using the following gradient: 0% B for 5 minutes, 0-10% B over 20 minutes. Absorbence of the eluate was monitored with a photodiode array detector, and peak areas were integrated at 260 nm.

[3] = Pi detection after reaction with dUTP (method of Heinonen and Lahti); conditions: 900 or 1800 ng PEF, 5 mM dUTP, 1 hour at 72° C.
Method: We tested whether inorganic pyrophosphate (PPi) or inorganic phosphate (Pi) was generated during the PEF-catalyzed conversion of dUTP to dUMP (FIG. 16). To assess whether Pi was produced, 900 or 1800 ng of PEF was incubated in the presence of 5 mM dUTP in 1× cloned Pfu polymerase buffer for 1 hour at 72° C. The reaction mixture was subsequently analyzed for the presence of Pi using the method of Heinonen and Lahti (Heinonen; J. K. and Lahti, R. J. (1981) Anal. Biochem. 113: 313-317). […] One hundred percent (100%) conversion corresponds to the production of 500 nmol of Pi, if Pi is a product of the reaction. […] The assay for Pi was sensitive enough to detect as little as about 50 nmoles of Pi.

[4] = target: T1, cloned Pfu DNA polymerase (Pyrococcus furiosus, UniProt P61875); assay: 6.2 kb primer-template PCR enhancing assay
T1 sequence (P61875 1-775): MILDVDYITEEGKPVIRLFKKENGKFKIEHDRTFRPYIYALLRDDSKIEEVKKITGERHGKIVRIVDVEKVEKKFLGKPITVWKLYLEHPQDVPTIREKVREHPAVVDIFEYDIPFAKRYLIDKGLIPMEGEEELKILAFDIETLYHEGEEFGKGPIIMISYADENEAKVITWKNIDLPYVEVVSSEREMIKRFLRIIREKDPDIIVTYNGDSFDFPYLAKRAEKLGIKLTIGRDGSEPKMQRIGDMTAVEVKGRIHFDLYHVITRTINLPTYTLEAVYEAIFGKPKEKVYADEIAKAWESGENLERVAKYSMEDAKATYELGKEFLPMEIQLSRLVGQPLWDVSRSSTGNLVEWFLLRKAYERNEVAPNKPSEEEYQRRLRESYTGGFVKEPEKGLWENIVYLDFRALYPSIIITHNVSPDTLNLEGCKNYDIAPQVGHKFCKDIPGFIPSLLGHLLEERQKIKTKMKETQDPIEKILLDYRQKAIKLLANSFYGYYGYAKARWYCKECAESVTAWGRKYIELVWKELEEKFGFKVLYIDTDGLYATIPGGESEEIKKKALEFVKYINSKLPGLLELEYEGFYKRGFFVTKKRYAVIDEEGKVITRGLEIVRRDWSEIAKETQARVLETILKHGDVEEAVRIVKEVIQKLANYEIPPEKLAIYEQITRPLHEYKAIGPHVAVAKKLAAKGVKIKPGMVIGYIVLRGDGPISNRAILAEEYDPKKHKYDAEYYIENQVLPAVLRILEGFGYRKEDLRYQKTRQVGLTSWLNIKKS
Method: One embodiment of an assay used to screen for PEFs, in this case from Pyrococcus furiosus, involved amplifying a 6.2 kb target from transgenic mouse DNA (6.2 kb primer-template assay). A master PCR cocktail was prepared consisting of: 200 μM each dNTP, 2 μg/ml primer F432-21 (5′-CTA-TTG-AGT-ACG-AAC-GCC-ATC) (SEQ ID NO.: 62), 2 μg/ml primer R6656-20 (GTC-ACG-CTT-GCT-CCA-CTC-CG) (SEQ ID NO: 63), 2.5 μg/ml λAA742 DNA (transgenic mouse DNA having 40 copies of a lambda phage DNA shuttle vector), 1× cloned Pfu DNA polymerase PCR buffer (10 mM KCl, 10 mM (NH4)2SO4, 20 mM Tris-HCl (pH 8.8), 2 mM MgSO4, 0.1% (v/v) Triton X-100, and 100 μg/ml BSA), and 25 U/ml cloned Pfu DNA polymerase. Samples were diluted in 1× cloned Pfu DNA polymerase PCR buffer, and 1 μl of each diluted sample was added to 24 μl of the PCR cocktail. PCR amplifications were conducted on the RoboCycler 96 Temperature Cycler (Stratagene), using the following conditions: 96° C. for 45 s (1 cycle)/96° C. for 45 s; 60° C. for 45 s; 72° C. for 14 min. (35 cycles)/72° C. for 10 min. (1 cycle). PCR products (10 μl/lane) are run out on 1% agarose gels and PCR product bands visualized by ethidium bromide staining. […] When PCR enhancement is due to the presence of PEFs, rather than contaminating endogenous DNA polymerase activity, amplifications performed in the absence of […] yield no PCR product. Moreover, PCR amplifications performed in the absence of exogenous DNA template should yield no PCR product when the PEF sample lacks contaminating target DNA.

B1: PEF: polymerase enhancing factor complex purified from Pyrococcus furiosus; predominant components P50 and P45 (protein)
chain 1: MLHHVKLIYATKSRKLVGKKIVXXXPGSIAALDVKACEGLIRHGAEVHAVMSEAATKIIHPYAWNLPTGNPVITEITGFIEHVELAGEHENKADLILVCPATANTISKIACGIDDTPVTTVVTTAFPHIPIMIAPAMHETMYRHPIVRENIERLKKLGVEFIGPRIEEGRAKVASIDEIVYRVIKKLHKKTLEGKRVLVTAGATREYIDPIRFITNASSGKMGVALAEEADFRGAVTLIRTKGSVKAFRIRKIKLKVETVEEMLSAIENELRSKKYDVVIMAAAVSDFRPKIKAEGKIKSGRSITIELVPXNPKIIDRIKEIQPNVFLVGFKAETSKEKLIEEGKRQIERAKADLVVGNTLEAFGSEENQVVLIGRDFTKELPKMKKRELAERIWDEIEKXLS
chain 2: MLLPDWKIRKEILIEPFSEESLQPAGYDLRVGREAFVKGKLIDVEKEGKVVIPPREYALILTLERIKLPDDVMGDMKIRSSLAREGVIGSFAWVDPGWDGNLTLMLYNASNEPVELRYGERFVQIAFIRLEGPARNPYRGNYQGSTRLAFSKRKKL
modifications: not fully specified; X: residue not identified in the source
notes: polymerase enhancing factor complex purified from Pyrococcus furiosus; predominant components P50 and P45
- PPi detected with dATP in place of dUTP [1]: No PPi was detected
- deamination of dCTP [2]: No deamination
- dCTP converted ([2]; 1 hour, 72° C., 700 ng PEF): 16.6%
- Pi formed during reaction with dUTP [3]: no Pi was detected
- excess PEF giving lower PCR product yield [4]: ≥ 900 ng/100 μl
- PEF concentration range enhancing performance of Pfu DNA polymerase in PCR ([4]; 10,000-fold range): 0.09-900 ng/100 μl
- very low PEF concentration giving lower PCR product yield ([4]; listed as substantially homogeneous PEF): < 9 pg/100 μl
